From publication PMC5042384, “Sequence-Dependent T:G Base Pair Opening in DNA Double Helix Bound by Cren7, a Chromatin Protein Conserved among Crenarchaea”

Key:
Cren7 [1] = biological target: T1, Cren7 (UniProt Q97ZE3 1-60); experiment: X-ray crystallography; 2.0 A; T2:G15 open; SPR (BIAcore 3000): 50 mM Tris-Cl pH 7.5, 100 mM NaCl, 1 mM EDTA, 0.005% Tween 20, 25 C, 1:1 Langmuir global fit; crystals: protein:DNA 1:1.5, 30% PEG1500, 20 C; details: protein: recombinant; blunt; self-annealed octamer, 2 strand copies, T:G mispairs T2:G15 and G7:T10
T1 sequence: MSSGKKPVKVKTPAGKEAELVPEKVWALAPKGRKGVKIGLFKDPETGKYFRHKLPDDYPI

Cren7 [2] = biological target: T1, Cren7; experiment: X-ray crystallography; 2.1 A; both T:G wobble; SPR (BIAcore 3000): 50 mM Tris-Cl pH 7.5, 100 mM NaCl, 1 mM EDTA, 0.005% Tween 20, 25 C, 1:1 Langmuir global fit; crystals: protein:DNA 1:1.5, 30% PEG1500, 20 C; details: protein: recombinant; blunt; self-annealed octamer, 2 strand copies, T:G mispairs T2:G15 and G7:T10

B1: d(GTAATTGC)2 (dsDNA)
DNA 1: GTAATTGC
DNA 2: GTAATTGC
binding result (Cren7 [1]): binds

B2: d(GTGATCGC)2 (dsDNA)
DNA 1: GTGATCGC
DNA 2: GTGATCGC
binding result (Cren7 [2]): binds
